The record followed here is patent publication US20120316071A1 (published 2012).

The target of assay [1] is T1, Recombinant Human DLL4 (R&D Systems Cat#1506-D4/CF) (human, UniProt Q9NR61 27-524).
T1 construct: Bought recombinant protein; also called rHuman DLL4; delta-like protein 4
The assay can be described thus: MSD multispot ECL, antigen spotted, Fab 2.3 nM; blank spot 234.

Assay [2] deals with T2, rHuman ErbB2/Fc Chimera, CF (R&D Systems Cat#1129-ER) (human, UniProt P04626 23-652).
T2 construct: Bought reagent; also called human epidermal growth factor 2 receptor
The assay is described as above.

Assay [3] addresses T3, rHuman EGF R/Fc Chimera, CF (R&D Systems Cat#344-ER) (human, UniProt P00533 25-645).
T3 construct: Bought reagent; also called epidermal growth factor receptor
Described as above.

In assay [4] the target is T4, rHuman HGF R/c-MET/Fc Chimera, CF (R&D Systems Cat#358-MT/CF) (human, UniProt P08581 25-932).
T4 construct: Bought reagent; also called HGF R/Fc; hepatocyte growth factor receptor
The assay is described as above.

In assay [5] the target is T5, rHuman Notch-1/Fc Chimera, CF (R&D Systems Cat#3647-TK) (human, UniProt P46531 19-526).
T5 construct: Bought reagent
The assay is described as above.

In assay [6] the target is T6, rHuman CD44/Fc Chimera, CF (R&D Systems Cat#3660-CD) (human, UniProt P16070 21-220).
T6 construct: Bought reagent
The description is as above.

In assay [7] the target is T7, rHuman IGF-1 sR, (IGF-1 sR), CF (R&D Systems Cat#391-GR) (human, UniProt P08069 31-932).
T7 construct: Bought soluble receptor; also called insulin-like growth factor-1 soluble receptor
Described as above.

The target in assay [8] is T8, rHuman Erythropoietin R/Fc Chimera, CF (R&D Systems Cat#963-ER) (human, UniProt P19235 25-250).
T8 construct: Bought reagent; also called EPO R/Fc; Epo R
T8 sequence (looked up): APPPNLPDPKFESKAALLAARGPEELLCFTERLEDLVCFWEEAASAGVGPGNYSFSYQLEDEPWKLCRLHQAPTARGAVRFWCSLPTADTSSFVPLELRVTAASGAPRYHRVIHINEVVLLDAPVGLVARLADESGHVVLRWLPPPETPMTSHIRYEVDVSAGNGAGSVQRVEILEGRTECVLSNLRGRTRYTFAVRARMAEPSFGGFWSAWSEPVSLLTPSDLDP
The assay is described as above.

For assay [9], the target named is T9, Recombinant Human DLL4 (R&D Systems Cat#1506-D4/CF) (human, UniProt Q9NR61 27-524).
T9 construct: Bought recombinant protein; also called delta-like protein 4; rHuman DLL4
The assay can be described thus: Multispot ECL (MSD) titration; antigen spotted on plate; Fab 232.5 nM; blank spot 460.

In assay [10] the target is T10, rHuman Erythropoietin R/Fc Chimera, CF (R&D Systems Cat#963-ER) (human, UniProt P19235 25-250).
T10 construct: Bought Fc chimera; also called EPO R/Fc; EPO R; Fc part of the bought chimera not given
T10 sequence (looked up): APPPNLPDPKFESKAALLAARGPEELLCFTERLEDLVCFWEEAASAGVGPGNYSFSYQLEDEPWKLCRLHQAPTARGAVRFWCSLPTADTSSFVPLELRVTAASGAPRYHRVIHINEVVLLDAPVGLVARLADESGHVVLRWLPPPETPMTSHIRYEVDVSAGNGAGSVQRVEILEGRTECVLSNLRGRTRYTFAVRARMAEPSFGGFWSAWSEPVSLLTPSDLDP
Briefly: Multispot ECL (MSD) titration; antigen spotted on plate; Fab 24.5 nM; blank spot 149.

In assay [11] the target is T9, Recombinant Human DLL4 (R&D Systems …). The assay is described as above.
Assay [12] addresses T11, rHuman ErbB2/Fc Chimera, CF (R&D Systems Cat#1129-ER) (human, UniProt P04626 23-652).
T11 construct: Bought Fc chimera; also called human epidermal growth factor 2 receptor; Fc part of the bought chimera not given
The assay is described as above.

The target in assay [13] is T12, rHuman HGF R/c-MET/Fc Chimera, CF (R&D Systems Cat#358-MT/CF) (human, UniProt P08581 25-932).
T12 construct: Bought Fc chimera; also called HGF R/Fc; hepatocyte growth factor receptor; Fc part of the bought chimera not given
Described as above.

The target in assay [14] is T13, rHuman Notch-1/Fc Chimera, CF (R&D Systems Cat#3647-TK) (human, UniProt P46531 19-526).
T13 construct: Bought Fc chimera; Fc part of the bought chimera not given
The description is as above.

For assay [15], the target named is T14, rHuman CD44/Fc Chimera, CF (R&D Systems Cat#3660-CD) (human, UniProt P16070 21-220).
T14 construct: Bought Fc chimera; Fc part of the bought chimera not given
The assay is described as above.

The target in assay [16] is T15, rHuman IGF-1 sR (IGF-1 sR), CF (R&D Systems Cat#391-GR) (human, UniProt P08069 31-932).
T15 construct: Bought soluble receptor; also called insulin-like growth factor-1 soluble receptor
The assay is described as above.

Assay [17] addresses T16, rHuman P-Cadherin/Fc Chimera, CF (R&D Systems Cat#861-PC) (human, UniProt P22223 108-654).
T16 construct: Bought Fc chimera; Fc part of the bought chimera not given
Described as above.

Assay [18] addresses T17, rHuman Notch-1/Fc Chimera, CF (R&D Systems Cat#3647-TK) (human, UniProt P46531 19-526).
T17 construct: Bought Fc chimera; Fc part of the bought chimera not given
Briefly: MSD Multispot ECL, antigen spotted on plate, Fab at 480 nM; blank spot 362.

For assay [19], the target named is T18, rHuman P-Cadherin/Fc Chimera, CF (R&D Systems Cat#861-PC) (human, UniProt P22223 108-654).
T18 construct: Bought Fc chimera; Fc part of the bought chimera not given
The assay is described as above.

B1: Fab VH1-46_IGHD6-6*01_IGHJ1*01 & L6_IGKJ1*01 (Fab, V domains shown)
VH: QVQLVQSGAEVKKPGASVKVSCKASGYTFTSYYMHWVRQAPGQGLEWMGIINPSGGSTSYAQKFQGRVTMTRDTSTSTVYMELSSLRSEDTAVYYCAREEYSSSSAEYFQHWGQGTLVTVSS
VL: not shown
notes: Only variable domains are tied to the molecule; Tested as a Fab made in E. coli: heavy chain from Plasmid A (CH1 constant region, His6 and Flag tags), kappa light chain from Plasmid C (kappa CL); also called parent Hit Fab against DLL4; VH1-46_IGHD6-6*01_IGHJ1*01 & L6_IGKJ1*01 (parental)
As to B1, the ECL signal in assay [1] was 3060 ECL signal; in assay [2], 291 ECL signal; in assay [3] it was 289 ECL signal; in assay [4] it was 253 ECL signal; in [5], 333 ECL signal; in [6] it was 317 ECL signal. Moreover, the ECL signal came to 231 ECL signal in assay [7] and 429 ECL signal in [8].

B2: Fab VH1-46_IGHD6-13*01_IGHJ4*01 & O1_IGKJ1*01 (Fab, V domains shown)
VH: QVQLVQSGAEVKKPGASVKVSCKASGYTFTSYYMHWVRQAPGQGLEWMGIINPSGGSTSYAQKFQGRVTMTRDTSTSTVYMELSSLRSEDTAVYYCAREGYSSSWYDYFDYWGQGTLVTVSS
VL: DIVMTQTPLSLPVTPGEPASISCRSSQSLLDSDDGNTYLDWYLQKPGQSPQLLIYTLSYRASGVPDRFSGSGSGTDFTLKISRVEAEDVGVYYCMQRIEFPSWTFGQGTKVEIKR
notes: Germline library Fab expressed in E. coli; VH was cloned into Plasmid A (CH1 constant region, His6 and Flag tags); The kappa VL was cloned into Plasmid C (kappa CL)
On to B2, for which the ECL signal in assay [9] was determined as 3590.

B3: Fab VH1-46_IGHD3-10*01_IGHJ4*01 & O1_IGKJ1*01 (Fab, V domains shown)
VH: QVQLVQSGAEVKKPGASVKVSCKASGYTFTSYYMHWVRQAPGQGLEWMGIINPSGGSTSYAQKFQGRVTMTRDTSTSTVYMELSSLRSEDTAVYYCAREYYYGSGSYYNDYFDYWGQGTLVTVSS
VL: DIVMTQTPLSLPVTPGEPASISCRSSQSLLDSDDGNTYLDWYLQKPGQSPQLLIYTLSYRASGVPDRFSGSGSGTDFTLKISRVEAEDVGVYYCMQRIEFPSWTFGQGTKVEIKR
notes: as for B2
On to B3, for which the ECL signal in assay [10] came to 4530; in [11], 339; in [12] it was 241; in assay [13] it was 211; in assay [14] it was 434; in assay [15], 267. Further, the ECL signal in [16] was determined as 239; in [17], 257.

B4: Fab VH6-1_IGHD3-3*01_IGHJ4*01 & V4-3_IGLJ4*01 (Fab, V domains shown)
VH: QVQLQQSGPGLVKPSQTLSLTCAISGDSVSSNSAAWNWIRQSPSRGLEWLGRTYYRSKWYNDYAVSVKSRITINPDTSKNQFSLQLNSVTPEDTAVYYCAREYYDFWSGYYTDYFDYWGQGTLVTVSS
VL: QPVLTQPTSLSASPGASARLTCTLRSGINLGSYRIFWYQQKPESPPRYLLSYYSDSSKHQGSGVPSRFSGSKDASSNAGILVISGLQSEDEADYYCMIWHSSASFVFGGGTQLIIL
notes: Tested as a purified germline Fab made in E. coli; The VH was cloned into plasmid A (CH1 constant region, His6 and Flag tags) and the lambda VL into plasmid E (lambda CL)
As to B4, the ECL signal in [18] is 545; in assay [19], 596.
